The numbers were not newly measured in publication PMC4188015, which cites them from elsewhere.

One may read the Kd as the constant that tells how readily two partners part at equilibrium.

The target in data set [1] is insulin receptor site 2 (Homo sapiens) (UniProt P06213).
For data set [2], the target named is insulin receptor site 1 (Homo sapiens) (UniProt P06213).
For data set [3], the target named is insulin receptor isoform A (Homo sapiens) (UniProt P06213).
Data set [4] deals with Human insulin (Homo sapiens) (UniProt P01308). The data set can be described thus: ITC. (In general: Isothermal titration calorimetry measures the heat released or taken up as one component is titrated into another.)

As for insulin (from UniProt P01308), the results for the Kd in data set [1] and in data set [2] were 400 nM and 6.4 nM, respectively. Regarding IGF-II (from UniProt P01344), the Kd in data set [3] was 4 nM. With Human insulin (from UniProt P01308), the Kd in data set [4] was 8810 nM.
